In patent US11897966 (UTC THERAPEUTICS SHANGHAI, dated 2024):

B1: M18 (scFv)
chain 1: QVQLVQSGGGLVQPGGSLRLSCAASGFTFSSYWMHWVRQAPGKGLVWVSRINSDGSSTSYADSVKGRFTISRDNAKNTLYLQMNSLRAEDTAVYYCVRTGWVGSYYYYMDVWGKGTTVTVSS
chain 2: EIVLTQSPGTLSLSPGERATLSCRASQSVSSNYLAWYQQKPGQPPRLLIYDVSTRATGIPARFSGGGSGTDFTLTISSLEPEDFAVYYCQQRSNWPPWTFGQGTKVEIK
B2: anti-mesothelin scFv-M7 (scFv)
chain: DIRLTQSPSSLSASLGDRVTITCRASQAISSALAWYQQKPGKAPRLLIYDASTLESGVPSRFSGSGSGTDFTLTISSLQPEDFATYYCQQADSFPLTFGGGTKLEIKGGGGSGGGGSGGGGSQVQLVQSGAEVKKSGESLKISCKGSGYGFGAYWIAWVRQMPGKGLEWMGIIYPGDSRVIYSPYFQGQVTISADKSISTAYLQWSSLKASDTAMYYCARFGGPKFATNWFDIWGQGTTVTVSS
B3: anti-mesothelin scFv-M15 (scFv)
chain: DIQLTQSPSSLSASIGDRVTITCRASQGVNSALAWYQQKPGKPPNLLIYDASSLESGVPSRFSGSGSGRDFTLTISSLQPEDFATYYCQQFSSYPLTFGGGTKVDIKGGGGSGGGGSGGGGSQVQLVQSGAEVKKPGASVKVSCKASGYTFTSYYMHWVRQAPGQGLEWMGIINPSGGSTSYAQKFQGRVTMTRDTSTSTVYMELSSLRSEDTAVYYCARAQRGGSVYFDYWGQGTLVTVSS
B4: anti-mesothelin scFv-M8 (scFv)
chain: DIQLTQSPSSLSASVGDRVTITCRASQSISSSLNWYQQKPGKAPKLLIYAASSLQSGVPSRFSGSGSGTDFTLTISSLQPEDFATYSCQQSYSTPLTFGGGTKVEIKGGGGSGGGGSGGGGSQVHLVESGGGVVQPGRSLRVSCAASGFTFSGYAMYWVRQAPGKGLEYVSAITTNGGSTNYADSVKGRFTISRDNSKNTLYLQMSSLRAGDTAVYYCARGAPGYRGYYMDVWGKGTTVTVSS
B5: anti-mesothelin scFv-M13 (scFv)
chain: AIRMTQSPSSLSASVGDRVTITCRASQGISNSLAWYQQKPGKAPKLLLYAASRLESGVPSRFSGSGSGTDYTLTISSLQPEDFATYYCQQYYSTPFTFGPGTKLEIKGGGGSGGGGSGGGGSQVQLVQSGAEVKKPGSSVKVSCKTSADTFSANTINWVRQAPGHGLEWMGRIIPSLNIRDYAQEFQGRVTFTADESTNTVYMQLTSLRSEDTAVYYCARDPGSTWSPNQFFPHWGQGTLVTVSS
B6: anti-mesothelin scFv-M6 (scFv)
chain: EIVMTQSPATLSLSPGERATLSCRASQSIGNSLAWYQQKPGQAPRLLIYDVSNRATGIPARFSGSGSGTDFTLTISSLEPEDFAVYYCQHRYSWPLTFGGGTKVEIKGGGGSGGGGSGGGGSQVQLVQSGGGLVKPGGSLRLSCAASGFTFSDYYMSWIRQAPGKGLEWVSYISSSGSTIYYADSVKGRFTISRDNAKNSLYLQMNSLRAEDTAVYYCARDGYRTHNWFDPWGQGTLVTVSS
B7: anti-mesothelin scFv-M37 (scFv)
chain: DIVMTQTPSSLSASVGDRVTITCRASQGISNYLAWFQQKPGKAPKPLIYAASSLQSGVPSKFSGSGSGTDFTLTISNLQPEDFATYICQQYSSYPITFGQGTRLEIKGGGGSGGGGSGGGGSQLQLQESGPGLVKPSETLSLTCAVSGGSISPYYWTWIRQSPGKAMEWMGYIHYSGRTNYNPSLESRATFSVDTSKNQISLKLNSVTAADTAVYYCTKVGDPGLFDYWGPGTLVTVSS
B8: anti-mesothelin scFv-M32 (scFv)
chain: DIRMTQSPSSLSASVGDRVTVTCQASEDINNSLNWYQQKPGKAPQLLIYDASDLETGVPSRFSGRGSGRDFTLTISSLQPEDFATYYCQQLNSYPLTFGGGTKLEIKGGGGSGGGGSGGGGSQVQLVQSGAEVKKPGASVKVSCKASGFTFIGYYLHWVRQAPGQGLEWMGIINPSGGRTSMAQKFQGRVSMTTDTSTGTVYLDLGRLGSDDTAVYYCARADNWNAGSMDVWGNGTTVTVSS
B9: anti-mesothelin scFv-M27 (scFv)
chain: EIVLTQSPGTLSLSPGERATLSCRASQPIVASHLAWYQHKPGQAPRLLIYGASTRAAGIPDRFSGSGSGTDFTLTISRLEPEDFAVYFCQQYGISPFTFGPGTKVDIKGGGGSGGGGSGGGGSQVQLVQSGAEVKKPGESLKISCQGSGYSFTDYWIGWVRQAPGQGLEWMGWITPNNGNTNYAPKFQGRVTLTTDTSTSTAYMELRSLTSDDTAVYFCARRGRNSSGYLYYYSMDVWGQGTTVTVSS
B10: anti-mesothelin scFv-M24 (scFv)
chain: QPVLTQPPSASGTPGQRVTISCSGSSSNIGSNYVYWYQQFPGTAPKLLIYMNNQRPSGVPDRFSGSKSGTSASLAISGLRSEDEADYYCAARDDSLSGYVTFGGGTKLTVLGGGGSGGGGSGGGGSEVHLVESGGGLVQPGGSLRLSCAASGFTFSSYAMSWVRQAPGKGLEWVSAISGSGGSTYYADSVKGRFTISRDNSKNTLYLQMNSLKTEDTAVYYCTRGVATFDYWGQGTLVTVSS
B11: anti-mesothelin scFv-M22 (scFv)
chain: QSALTQPASVSGSPGQSITLSCTGTRRDIGGYEYVSWYQQHPGKAPKLLIFSVNNRPSGVSHRFSGSKSGNTASLTISGLQAEDEAAYFCSSYSSRDTLVLFGGGTKLTVLGGGGSGGGGSGGGGSQVQLVQSGAEVKKPGSSVKVSCKASGGTFSSYAISWVRQAPGQGLEWMGGIIPIFGTANYAQKFQGRVTITADESTSTAYMELSSLRSEDTAVYYCASGRSGSYGLYWGQGTLVTVSS
B12: anti-mesothelin scFv-M20 (scFv)
chain: AIQMTQSPSSLSASVGNRVTITCRASQGISSAVAWYQQKPGKPPKLLISYASSLESGVPSRFSGSGSGTDFSLTISSLQPEDFATYFCQQFNSYPLTFGGGTKVEIKGGGGSGGGGSGGGGSQVQLVQSGAEVRKPGESLKISCKGSGYSFRDSWIAWVRQMPGQGLEWMGIIFPGDSNPIYSPSFQGQVTISADTSISTTFLQWRSLKASDSAIYYCARHAAWGAGWFDPWGQGTLVTVSS
B13: anti-mesothelin scFv-M31 (scFv)
chain: QSALTQPPSASGSPGQSVTISCTGTSSDIGGYNSVSWYQQHPGKAPKLIIYGVSRRPSGVPDRFSGSKSANTASLTVSGLQAVDEADYYCSSYGGSNNLLFGGGTKLTVLGGGGSGGGGSGGGGSEVHLVESGGGLAQPGGSLRLSCAASGFSFSSSWMAWVRQAPGKGLEWVANIKQDGSSQYYVDSVKGRFTISRDNAKNSLSLQMNSLRAEDTAVYYCARDIWYSIDYWGQGTLVTVSS
B14: anti-mesothelin scFv-M28 (scFv)
chain: QSALTQPPSASGSPGQSVTISCSGTSSDVGGYNFVSWYQHHPGKAPKLMIYEVSKRPSGVPDRFSGSKSGNTASLTVSGLQAEDEADYYCSSYAGRNNPYLFGTGTKLTVLGGGGSGGGGSGGGGSQLQLQESGAEVKKPGSSVKVSCKASGGTFSSYAISWVRQAPGQGLEWMGGIIPIFGTANYAQKFQGRVTITADESTSTAYMELSSLRSEDTAVYYCARDLGGYSYGHGLDYWGQGTLVTVSS

The binders below were run against T1, mesothelin-Fc recombinant protein (human, UniProt Q13421 296-580, limits assumed) (assay: FACS of T cells expressing the scFv CAR, stained with Mesothelin-Fc + PE-anti-IgG-Fc; Mock T cells of the same block: 0.63).
T1 construct: also called mesothelin-Fc protein; human Mesothelin-Fc; not shown: Fc part
T1 sequence (Q13421 other isoform, or with tags, fused parts or gaps limits assumed): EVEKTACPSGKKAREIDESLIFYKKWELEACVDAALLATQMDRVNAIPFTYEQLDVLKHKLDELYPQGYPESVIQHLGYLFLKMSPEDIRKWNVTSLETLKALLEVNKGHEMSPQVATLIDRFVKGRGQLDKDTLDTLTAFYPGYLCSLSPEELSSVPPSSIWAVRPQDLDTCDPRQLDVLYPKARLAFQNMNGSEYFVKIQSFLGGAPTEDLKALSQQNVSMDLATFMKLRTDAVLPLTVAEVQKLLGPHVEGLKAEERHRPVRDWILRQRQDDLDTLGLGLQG

| Binder | number in the Mesothelin-Fc positive gate (percent of cells, unit not given) |
| --- | --- |
| B1 | 9.53 |
| B2 | 36.3 |
| B3 | 48.8 |
| B4 | 80.8 |
| B5 | 71.1 |
| B6 | 83.4 |

Each binder was assayed against T1, mesothelin-Fc recombinant protein (assay: FACS of T cells expressing the scFv CAR, stained with Mesothelin-Fc + PE-anti-IgG-Fc; Mock T cells of the same block: 0.97).

| Binder | number in the Mesothelin-Fc positive gate (percent of cells, unit not given) |
| --- | --- |
| B7 | 74.2 |
| B8 | 84.1 |
| B9 | 76.3 |
| B10 | 93.6 |
| B11 | 80 |
| B12 | 75.6 |
| B13 | 67.9 |
| B14 | 82.8 |
